Key:
Assay in all cases: fluorescence protection assay
[1] = biological target: Carcinoembryonic antigen (CEA) (UniProt P06731 35-685)
Thrombin = Thrombin (UniProt P00734;P00734 328-363;364-622)
alpha-fetoprotein (AFP) = biological target: T1, alpha-fetoprotein (AFP) (UniProt P02771 19-609)
T1 sequence: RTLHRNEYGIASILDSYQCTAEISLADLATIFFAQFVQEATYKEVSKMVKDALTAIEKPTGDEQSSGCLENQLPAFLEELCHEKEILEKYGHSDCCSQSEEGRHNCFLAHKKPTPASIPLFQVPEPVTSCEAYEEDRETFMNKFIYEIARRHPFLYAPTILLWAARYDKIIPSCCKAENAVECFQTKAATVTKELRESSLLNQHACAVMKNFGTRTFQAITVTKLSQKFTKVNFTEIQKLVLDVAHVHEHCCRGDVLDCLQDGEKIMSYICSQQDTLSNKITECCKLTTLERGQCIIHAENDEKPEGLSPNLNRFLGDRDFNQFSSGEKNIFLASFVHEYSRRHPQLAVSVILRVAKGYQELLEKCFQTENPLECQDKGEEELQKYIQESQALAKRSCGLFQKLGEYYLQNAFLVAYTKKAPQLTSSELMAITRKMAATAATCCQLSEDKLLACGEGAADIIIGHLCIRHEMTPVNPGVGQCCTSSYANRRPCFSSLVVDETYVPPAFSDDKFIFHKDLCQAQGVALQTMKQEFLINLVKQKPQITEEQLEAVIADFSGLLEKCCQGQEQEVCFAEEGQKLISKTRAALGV

Measured: binding result

Sequence of Carcinoembryonic antigen (CEA) (P06731 35-685): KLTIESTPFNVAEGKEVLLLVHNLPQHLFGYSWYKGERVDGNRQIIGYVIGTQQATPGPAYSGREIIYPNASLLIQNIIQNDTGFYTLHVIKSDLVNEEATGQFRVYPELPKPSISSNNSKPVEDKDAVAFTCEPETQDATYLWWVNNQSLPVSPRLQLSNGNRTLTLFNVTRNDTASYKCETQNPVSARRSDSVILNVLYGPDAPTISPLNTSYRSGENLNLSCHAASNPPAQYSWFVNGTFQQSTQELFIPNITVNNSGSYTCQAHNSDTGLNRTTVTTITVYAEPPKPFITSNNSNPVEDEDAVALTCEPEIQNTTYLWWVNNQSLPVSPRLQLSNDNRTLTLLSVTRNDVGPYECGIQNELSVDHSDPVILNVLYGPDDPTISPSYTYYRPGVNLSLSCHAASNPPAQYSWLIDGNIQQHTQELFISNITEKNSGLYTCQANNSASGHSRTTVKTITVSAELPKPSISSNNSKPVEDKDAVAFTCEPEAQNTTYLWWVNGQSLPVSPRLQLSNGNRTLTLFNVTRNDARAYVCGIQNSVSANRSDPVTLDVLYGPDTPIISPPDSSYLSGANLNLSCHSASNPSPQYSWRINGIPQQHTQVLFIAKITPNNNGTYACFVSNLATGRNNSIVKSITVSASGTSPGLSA

B1: IgE aptamer, FITC at Site 1 (structured_DNA)
DNA: GCGCGGGGCACGTTTATCCGTCCCTCCTAGTGGCGTGCCCCGCGC
modifications: FITC-modified T at Site 1 (position only in Fig 2A)
no binding: [1] | Thrombin | alpha-fetoprotein (AFP)

— publication PMC3185441
